Laboratory results: publication PMC9349299

Experiments:
[1] = molecular target: AvmM (Streptomyces sp. TP-A0867); experiment: SEC; HiLoad 16/600 Superdex 200 pg, 50 mM NaCl, 20 mM Tris pH 8.0, 4 °C, 1 mL/min; calibrated with cytochrome c, ovalbumin, aldolase, ferritin
[2] = molecular target: AvmM (Streptomyces sp. TP-A0867); experiment: crystal structure; sitting drop, 22 °C; protein 10 mg/mL in 50 mM NaCl, 20 mM Tris pH 8.0; reservoir 0.2 M magnesium acetate, 0.1 M sodium cacodylate pH 6.5, 20% PEG 8000; apo AvmM at 2.09 Å and AvmM with product 2 at 2.5 Å

AvmM (enzyme)
stoichiometry N [1]: 3 | stoichiometry N [2]: 3
